From article PMC6202311

Experiments:
[1] = tested on: RNase E NTD 8x mutant (Escherichia coli); test: BLI; conditions: 5' monophosphate; 3' U-biotin ligated; BLI: 25 mM HEPES pH 7.0, 150 mM NaCl, 100 mM KCl, 10 mM CaCl2, 0.5 mM TCEP; RNA immobilised on streptavidin sensors, protein 0-500 nM; temperature not stated
[2] = tested on: RNase E NTD WT (Escherichia coli); test: BLI; conditions: 3' U-biotin ligated, BLI: 25 mM HEPES pH 7.0, 150 mM NaCl, 100 mM KCl, 10 mM CaCl2, 0.5 mM TCEP, RNA immobilised on streptavidin sensors, protein 0-500 nM, temperature not stated

Substance | Kd [1] [µM] | Kd ([2]; 5' monophosphate) [µM] | Kd ([2]; 5' triphosphate) [µM]
RprA 5'-monophosphate | 0.047 | 0.0156 | 
RprA 5'-triphosphate |  |  | 0.0086
